Where no end group is shown, it is not given here.
Target: the molecule itself
Experiment: atomic force microscopy + co-sedimentation; peptide 10 mg/mL in 10% acetonitrile in water, shaken at 600 rpm at 37 °C for 24 h; fibrils imaged by AFM on mica; fibrils pelleted at 313,000 x g for 30 min, supernatant with unaggregated monomer removed, and the pellet's peptide analysed by LC-MS

**Q.** Does YTIAALLSPYS-NH2 [TTR105-115 peptide, unfunctionalised 'wild-type', amide-terminated] bind?
**A.** binds
